Test results from patent US9937235B2, “Lipidated peptides as anti-obesity agents” (USTAV ORGANICKE CHEMIE A BIOCHEMIE AKADEMIE VED CR, V.V.I, priority 2012, dated 2018).
Where no end group is shown, it is not given here. [ ]: non-standard residue; d: D form. The star is where a group is joined. 1Nal = N[C@@H](Cc1cccc2ccccc12)C(=O)O; Palmitoyl = CCCCCCCCCCCCCCCC(=O)*; Myristoyl = CCCCCCCCCCCCCC(=O)*; Nle = CCCC[C@H](N)C(=O)O; Octanoyl = CCCCCCCC(=O)*; Dap = NC[C@H](N)C(=O)O

T1: rat PrRP receptor in RC-4B/C cells (rat, UniProt Q64121 1-370)
T1 construct: whole, on cells; also called the rat receptor; GPR10
T1 sequence (looked up): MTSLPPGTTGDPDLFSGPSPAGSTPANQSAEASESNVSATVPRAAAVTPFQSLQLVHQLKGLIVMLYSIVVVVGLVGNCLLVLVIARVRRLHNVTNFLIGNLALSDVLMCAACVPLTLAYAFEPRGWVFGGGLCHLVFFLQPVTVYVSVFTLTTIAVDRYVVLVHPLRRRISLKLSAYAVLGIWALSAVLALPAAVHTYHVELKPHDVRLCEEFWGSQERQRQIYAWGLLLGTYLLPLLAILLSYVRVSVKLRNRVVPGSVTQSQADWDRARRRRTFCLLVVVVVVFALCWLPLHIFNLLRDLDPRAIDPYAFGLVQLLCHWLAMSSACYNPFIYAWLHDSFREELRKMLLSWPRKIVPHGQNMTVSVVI

B1: analog no. 5 (peptide)
peptide: [Dap](Myristoyl)RAHQHS[Nle]ETRTPDINPAWYTGRGIRPVGRF-NH2
modifications: N-terminus assumed
SMILES: CCCCCCCCCCCCCC(=O)NC[C@H](N)C(=O)N[C@@H](CCCNC(=N)N)C(=O)N[C@@H](C)C(=O)N[C@@H](Cc1c[nH]cn1)C(=O)N[C@@H](CCC(N)=O)C(=O)N[C@@H](Cc1c[nH]cn1)C(=O)N[C@@H](CO)C(=O)N[C@@H](CCCC)C(=O)N[C@@H](CCC(=O)O)C(=O)N[C@H](C(=O)N[C@@H](CCCNC(=N)N)C(=O)N[C@H](C(=O)N1CCC[C@H]1C(=O)N[C@@H](CC(=O)O)C(=O)N[C@H](C(=O)N[C@@H](CC(N)=O)C(=O)N1CCC[C@H]1C(=O)N[C@@H](C)C(=O)N[C@@H](Cc1c[nH]c2ccccc12)C(=O)N[C@@H](Cc1ccc(O)cc1)C(=O)N[C@H](C(=O)NCC(=O)N[C@@H](CCCNC(=N)N)C(=O)NCC(=O)N[C@H](C(=O)N[C@@H](CCCNC(=N)N)C(=O)N1CCC[C@H]1C(=O)N[C@H](C(=O)NCC(=O)N[C@@H](CCCNC(=N)N)C(=O)N[C@@H](Cc1ccccc1)C(N)=O)C(C)C)[C@@H](C)CC)[C@@H](C)O)[C@@H](C)CC)[C@@H](C)O)[C@@H](C)O
notes: analog of rat PrRP31; also called [Dpr(myr)^1]PrRP31; myristoylated analog [Dpr^1]PrRP31 (No. 5)
B2: analog no. 6 (peptide)
peptide: [Dap](Palmitoyl)RAHQHS[Nle]ETRTPDINPAWYTGRGIRPVGRF-NH2
modifications: N-terminus assumed
SMILES: CCCCCCCCCCCCCCCC(=O)NC[C@H](N)C(=O)N[C@@H](CCCNC(=N)N)C(=O)N[C@@H](C)C(=O)N[C@@H](Cc1c[nH]cn1)C(=O)N[C@@H](CCC(N)=O)C(=O)N[C@@H](Cc1c[nH]cn1)C(=O)N[C@@H](CO)C(=O)N[C@@H](CCCC)C(=O)N[C@@H](CCC(=O)O)C(=O)N[C@H](C(=O)N[C@@H](CCCNC(=N)N)C(=O)N[C@H](C(=O)N1CCC[C@H]1C(=O)N[C@@H](CC(=O)O)C(=O)N[C@H](C(=O)N[C@@H](CC(N)=O)C(=O)N1CCC[C@H]1C(=O)N[C@@H](C)C(=O)N[C@@H](Cc1c[nH]c2ccccc12)C(=O)N[C@@H](Cc1ccc(O)cc1)C(=O)N[C@H](C(=O)NCC(=O)N[C@@H](CCCNC(=N)N)C(=O)NCC(=O)N[C@H](C(=O)N[C@@H](CCCNC(=N)N)C(=O)N1CCC[C@H]1C(=O)N[C@H](C(=O)NCC(=O)N[C@@H](CCCNC(=N)N)C(=O)N[C@@H](Cc1ccccc1)C(N)=O)C(C)C)[C@@H](C)CC)[C@@H](C)O)[C@@H](C)CC)[C@@H](C)O)[C@@H](C)O
notes: analog of rat PrRP31; also called [Dpr(palm)^1]PrRP31
B3: analog no. 1 (peptide)
peptide: [Dap]RAHQHS[Nle]ETRTPDINPAWYTGRGIRPVGRF-NH2
modifications: N-terminus assumed
SMILES: CCCC[C@H](NC(=O)[C@H](CO)NC(=O)[C@H](Cc1c[nH]cn1)NC(=O)[C@H](CCC(N)=O)NC(=O)[C@H](Cc1c[nH]cn1)NC(=O)[C@H](C)NC(=O)[C@H](CCCNC(=N)N)NC(=O)[C@@H](N)CN)C(=O)N[C@@H](CCC(=O)O)C(=O)N[C@H](C(=O)N[C@@H](CCCNC(=N)N)C(=O)N[C@H](C(=O)N1CCC[C@H]1C(=O)N[C@@H](CC(=O)O)C(=O)N[C@H](C(=O)N[C@@H](CC(N)=O)C(=O)N1CCC[C@H]1C(=O)N[C@@H](C)C(=O)N[C@@H](Cc1c[nH]c2ccccc12)C(=O)N[C@@H](Cc1ccc(O)cc1)C(=O)N[C@H](C(=O)NCC(=O)N[C@@H](CCCNC(=N)N)C(=O)NCC(=O)N[C@H](C(=O)N[C@@H](CCCNC(=N)N)C(=O)N1CCC[C@H]1C(=O)N[C@H](C(=O)NCC(=O)N[C@@H](CCCNC(=N)N)C(=O)N[C@@H](Cc1ccccc1)C(N)=O)C(C)C)[C@@H](C)CC)[C@@H](C)O)[C@@H](C)CC)[C@@H](C)O)[C@@H](C)O
notes: analog of rat PrRP31; also called [Dpr^1]PrRP31
B4: analog no. 7 (peptide)
peptide: [Dap]RAHQHS[Nle]ETRTPDINPAWYTGRGIRPVGR[1Nal]-NH2
modifications: N-terminus assumed
SMILES: CCCC[C@H](NC(=O)[C@H](CO)NC(=O)[C@H](Cc1c[nH]cn1)NC(=O)[C@H](CCC(N)=O)NC(=O)[C@H](Cc1c[nH]cn1)NC(=O)[C@H](C)NC(=O)[C@H](CCCNC(=N)N)NC(=O)[C@@H](N)CN)C(=O)N[C@@H](CCC(=O)O)C(=O)N[C@H](C(=O)N[C@@H](CCCNC(=N)N)C(=O)N[C@H](C(=O)N1CCC[C@H]1C(=O)N[C@@H](CC(=O)O)C(=O)N[C@H](C(=O)N[C@@H](CC(N)=O)C(=O)N1CCC[C@H]1C(=O)N[C@@H](C)C(=O)N[C@@H](Cc1c[nH]c2ccccc12)C(=O)N[C@@H](Cc1ccc(O)cc1)C(=O)N[C@H](C(=O)NCC(=O)N[C@@H](CCCNC(=N)N)C(=O)NCC(=O)N[C@H](C(=O)N[C@@H](CCCNC(=N)N)C(=O)N1CCC[C@H]1C(=O)N[C@H](C(=O)NCC(=O)N[C@@H](CCCNC(=N)N)C(=O)N[C@@H](Cc1cccc2ccccc12)C(N)=O)C(C)C)[C@@H](C)CC)[C@@H](C)O)[C@@H](C)CC)[C@@H](C)O)[C@@H](C)O
notes: analog of rat PrRP31
B5: analog no. 8 (peptide)
peptide: [Dap](Octanoyl)RAHQHS[Nle]ETRTPDINPAWYTGRGIRPVGR[1Nal]-NH2
modifications: N-terminus assumed
SMILES: CCCCCCCC(=O)NC[C@H](N)C(=O)N[C@@H](CCCNC(=N)N)C(=O)N[C@@H](C)C(=O)N[C@@H](Cc1c[nH]cn1)C(=O)N[C@@H](CCC(N)=O)C(=O)N[C@@H](Cc1c[nH]cn1)C(=O)N[C@@H](CO)C(=O)N[C@@H](CCCC)C(=O)N[C@@H](CCC(=O)O)C(=O)N[C@H](C(=O)N[C@@H](CCCNC(=N)N)C(=O)N[C@H](C(=O)N1CCC[C@H]1C(=O)N[C@@H](CC(=O)O)C(=O)N[C@H](C(=O)N[C@@H](CC(N)=O)C(=O)N1CCC[C@H]1C(=O)N[C@@H](C)C(=O)N[C@@H](Cc1c[nH]c2ccccc12)C(=O)N[C@@H](Cc1ccc(O)cc1)C(=O)N[C@H](C(=O)NCC(=O)N[C@@H](CCCNC(=N)N)C(=O)NCC(=O)N[C@H](C(=O)N[C@@H](CCCNC(=N)N)C(=O)N1CCC[C@H]1C(=O)N[C@H](C(=O)NCC(=O)N[C@@H](CCCNC(=N)N)C(=O)N[C@@H](Cc1cccc2ccccc12)C(N)=O)C(C)C)[C@@H](C)CC)[C@@H](C)O)[C@@H](C)CC)[C@@H](C)O)[C@@H](C)O
notes: analog of rat PrRP31
B6: analog no. 9 (peptide)
peptide: [Dap](Myristoyl)RAHQHS[Nle]ETRTPDINPAWYTGRGIRPVGR[1Nal]-NH2
modifications: N-terminus assumed
SMILES: CCCCCCCCCCCCCC(=O)NC[C@H](N)C(=O)N[C@@H](CCCNC(=N)N)C(=O)N[C@@H](C)C(=O)N[C@@H](Cc1c[nH]cn1)C(=O)N[C@@H](CCC(N)=O)C(=O)N[C@@H](Cc1c[nH]cn1)C(=O)N[C@@H](CO)C(=O)N[C@@H](CCCC)C(=O)N[C@@H](CCC(=O)O)C(=O)N[C@H](C(=O)N[C@@H](CCCNC(=N)N)C(=O)N[C@H](C(=O)N1CCC[C@H]1C(=O)N[C@@H](CC(=O)O)C(=O)N[C@H](C(=O)N[C@@H](CC(N)=O)C(=O)N1CCC[C@H]1C(=O)N[C@@H](C)C(=O)N[C@@H](Cc1c[nH]c2ccccc12)C(=O)N[C@@H](Cc1ccc(O)cc1)C(=O)N[C@H](C(=O)NCC(=O)N[C@@H](CCCNC(=N)N)C(=O)NCC(=O)N[C@H](C(=O)N[C@@H](CCCNC(=N)N)C(=O)N1CCC[C@H]1C(=O)N[C@H](C(=O)NCC(=O)N[C@@H](CCCNC(=N)N)C(=O)N[C@@H](Cc1cccc2ccccc12)C(N)=O)C(C)C)[C@@H](C)CC)[C@@H](C)O)[C@@H](C)CC)[C@@H](C)O)[C@@H](C)O
notes: analog of rat PrRP31; also called myristoylated analog [Dpr^1 Nal^31]PrRP31 (No. 9)
B7: analog no. 2 (peptide)
peptide: [Dap](Octanoyl)RAHQHS[Nle]ETRTPDINPAWYTGRGIRPVGRF-NH2
modifications: N-terminus assumed
SMILES: CCCCCCCC(=O)NC[C@H](N)C(=O)N[C@@H](CCCNC(=N)N)C(=O)N[C@@H](C)C(=O)N[C@@H](Cc1c[nH]cn1)C(=O)N[C@@H](CCC(N)=O)C(=O)N[C@@H](Cc1c[nH]cn1)C(=O)N[C@@H](CO)C(=O)N[C@@H](CCCC)C(=O)N[C@@H](CCC(=O)O)C(=O)N[C@H](C(=O)N[C@@H](CCCNC(=N)N)C(=O)N[C@H](C(=O)N1CCC[C@H]1C(=O)N[C@@H](CC(=O)O)C(=O)N[C@H](C(=O)N[C@@H](CC(N)=O)C(=O)N1CCC[C@H]1C(=O)N[C@@H](C)C(=O)N[C@@H](Cc1c[nH]c2ccccc12)C(=O)N[C@@H](Cc1ccc(O)cc1)C(=O)N[C@H](C(=O)NCC(=O)N[C@@H](CCCNC(=N)N)C(=O)NCC(=O)N[C@H](C(=O)N[C@@H](CCCNC(=N)N)C(=O)N1CCC[C@H]1C(=O)N[C@H](C(=O)NCC(=O)N[C@@H](CCCNC(=N)N)C(=O)N[C@@H](Cc1ccccc1)C(N)=O)C(C)C)[C@@H](C)CC)[C@@H](C)O)[C@@H](C)CC)[C@@H](C)O)[C@@H](C)O
notes: analog of rat PrRP31; also called [Dpr(oct)^1]PrRP31

The binders below were run against T1, rat PrRP receptor in RC-4B/C cells (assay: competition with 125I-rat PrRP31 on RC-4B/C cells; Ki by Cheng-Prusoff).
Description: (§1) The rat pituitary cell line RC-4B/C (ATCC, Manassas, USA) was grown on 24-well plates which had their bottom coated with polyethyleneimine. The cells were grown to the optimal density of 300-450 thousand per well.
(§2) Plates were incubated for 60 minutes at room temperature. After incubation, the cells were solubilized in 0.1 mol/l solution of NaOH and the radioactivity bound to the cells was counted using a γ-counter. The experiments were performed in duplicate and repeated at least three times.
For evaluation of competitive binding experiments, the program Graph Pad Prism Software (San Diego, Calif., USA) was used. A method of nonlinear regression assuming one-site binding was used.

Compared with B1, SRAHQHSMETRTPDINPAWYTGRGIRPVGRF-NH2 (also called prolactin-releasing peptide) [Rat PrRP31] is 6-fold higher in Ki: 0.82 nM for the first, 4.93 nM for the second. The first binds more tightly here.

Going from B2 to B3, the Ki rises from 0.46 nM to 3.74 nM (8.1-fold).

First: B4
Second: B5
The Ki of the first is 1.5-fold higher: 60.1 nM for the first, 39.2 nM for the second.

B6 and B7 are within 1.5-fold of each other in Ki: 2.95 nM for the first, 2.86 nM for the second.

These binders were tested against T1, rat PrRP receptor in RC-4B/C cells (assay: competition with 125I-rat PrRP31 on RC-4B/C cells).
Description: as §1, §2

Going from B1 to SRAHQHSMETRTPDINPAWYTGRGIRPVGRF-NH2 (also called prolactin-releasing peptide) [Rat PrRP31], the “% of PrRP31 binding” value falls from 601% to 100%.

Compared with B2, B3 is lower in “% of PrRP31 binding” value: 1070% for the first, 132% for the second.

Compared with B4, B5 is higher in “% of PrRP31 binding” value: 8% for the first, 13% for the second.

Going from B6 to B7, the “% of PrRP31 binding” value rises from 167% to 172%.
